± gives the standard deviation of the averaged measurements.
Legend:
Saccharomyces cerevisiae [1] = experiment: protein stability index of tFT-peptide fusion (C-terminal peptide) (PSI (0-1 scale)); higher = more stable (slower turnover)
Protocol: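 MPS profiling in S. cerevisiae of the tFT-X12 degron library: putative degron peptides plus stable controls, 12 aa, fused to the C-terminus of a sfGFP-mCherry timer. Cells are FACS-sorted into 8 mCherry/sfGFP bins and deep-sequenced. PSI runs from 0 (unstable) to 1 (stable). Backgrounds are wild type, das1Δ and doa10Δ at 30 °C, and wild type, das1Δ, cdc34-1 and cdc53-1 at 37 °C; 2-3 technical replicates each.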

Saccharomyces cerevisiae [2] = experiment: as above; conditions: genetic background: wild type; temperature: 30 C
[3] = genetic background: cdc34-1, temperature: 37 C
[4] = genetic background: cdc53-1, temperature: 37 C
[5] = genetic background: das1 deletion, temperature: 30 C
[6] = genetic background: das1 deletion, temperature: 37 C
[7] = genetic background: doa10 deletion, temperature: 30 C
[8] = genetic background: wild type, temperature: 30 C
[9] = genetic background: wild type, temperature: 37 C
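Further: PSI is a weighted mean of sequencing reads over stability bins, variants kept only with over 10 reads, mCherry proximal and sfGFP distal, peptide attached via GGGS linker.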

Row | Sequence | protein stability index (Saccharomyces cerevisiae [1]; [3]) | protein stability index (Saccharomyces cerevisiae [1]; [4]) | protein stability index (Saccharomyces cerevisiae [1]; [5]) | protein stability index (Saccharomyces cerevisiae [1]; [6]) | protein stability index (Saccharomyces cerevisiae [1]; [7]) | protein stability index (Saccharomyces cerevisiae [1]; [8]) | protein stability index (Saccharomyces cerevisiae [1]; [9]) | protein stability index (Saccharomyces cerevisiae [2])
1 | WFLMVILYTVYG | 0.157 ± 0.0068 | 0.2 ± 0.0073 | 0.182 ± 0.035 | 0.304 ± 0.0055 | 0.149 ± 0.033 | 0.187 ± 0.032 | 0.278 ± 0.013 | 0.299 ± 0.0077
2 | WGCTGGRGRLVC | 0.69 ± 0.025 | 0.74 ± 0.013 | 0.643 ± 0.029 | 0.7405 ± 0.0052 | 0.254 ± 0.011 | 0.295 ± 0.013 | 0.555 ± 0.024 | 0.428 ± 0.049
3 | WGGIASLVASAA | 0.36 ± 0.049 | 0.437 ± 0.1 | 0.236 ± 0.033 | 0.411 ± 0.0061 | 0.214 ± 0.006 | 0.259 ± 0.019 | 0.378 ± 0.023 | 0.364 ± 0.0089
4 | WLFASCVFFWSS | 0.447 ± 0.045 | 0.502 ± 0.0068 | 0.386 ± 0.026 | 0.525 ± 0.015 | 0.355 ± 0.0086 | 0.37 ± 0.0092 | 0.483 ± 0.011 | 0.426 ± 0.0054
5 | WLSFAIECGMVW | 0.1938 ± 0.0014 | 0.28 ± 0.058 | 0.252 ± 0.023 | 0.3286 ± 0.0012 | 0.2135 ± 0.0014 | 0.249 ± 0.026 | 0.287 ± 0.032 | 0.357 ± 0.045
6 | WLTCSLVFNVFW | 0.429 ± 0.025 | 0.455 ± 0.007 | 0.406 ± 0.014 | 0.482 ± 0.0057 | 0.448 ± 0.032 | 0.389 ± 0.026 | 0.471 ± 0.015 | 0.438 ± 0.0061
7 | WQSFRDKLIKGN | 0.646 ± 0.044 | 0.716 ± 0.026 | 0.643 ± 0.028 | 0.754 ± 0.041 | 0.188 ± 0.034 | 0.204 ± 0.036 | 0.3754 ± 0.0012 | 0.264 ± 0.071
8 | WRCECELASACA | 0.458 ± 0.015 | 0.473 ± 0.027 | 0.347 ± 0.037 | 0.508 ± 0.0082 | 0.31 ± 0.0062 | 0.361 ± 0.024 | 0.486 ± 0.0079 | 0.431 ± 0.013
9 | WRGALHPTPVAA | 0.285 ± 0.018 | 0.282 ± 0.0046 | 0.249 ± 0.035 | 0.419 ± 0.0075 | 0.198 ± 0.0084 | 0.253 ± 0.029 | 0.4 ± 0.017 | 0.339 ± 0.0086
10 | WSNICFWCGVWS | 0.685 ± 0.027 | 0.826 ± 0.011 | 0.673 ± 0.038 | 0.815 ± 0.033 | 0.356 ± 0.0059 | 0.39 ± 0.024 | 0.6615 ± 0.0049 | 0.458 ± 0.057
11 | WSWVFVVLRFGR | 0.485 ± 0.035 | 0.5367 ± 0.0019 | 0.405 ± 0.027 | 0.574 ± 0.017 | 0.412 ± 0.025 | 0.394 ± 0.024 | 0.562 ± 0.014 | 0.527 ± 0.048
12 | WVLFRLPYQFFS | 0.668 ± 0.048 | 0.707 ± 0.021 | 0.57 ± 0.038 | 0.737 ± 0.026 | 0.368 ± 0.0073 | 0.393 ± 0.022 | 0.633 ± 0.0017 | 0.436 ± 0.0098
13 | WWDCAVWVRCGG | 0.477 ± 0.026 | 0.471 ± 0.0077 | 0.382 ± 0.024 | 0.5379 ± 0.0022 | 0.407 ± 0.013 | 0.382 ± 0.019 | 0.516 ± 0.012 | 0.471 ± 0.015
14 | YCAMVAVGVVGG | 0.468 ± 0.037 | 0.506 ± 0.025 | 0.329 ± 0.021 | 0.503 ± 0.0096 | 0.306 ± 0.016 | 0.334 ± 0.018 | 0.493 ± 0.012 | 0.509 ± 0.03
15 | YCLSCLAKASLM | 0.495 ± 0.036 | 0.606 ± 0.0019 | 0.524 ± 0.021 | 0.5686 ± 0.0039 | 0.164 ± 0.0029 | 0.19 ± 0.0066 | 0.38 ± 0.011 | 0.28811 ± 0.00011
16 | YFCVELSVFGFF | 0.416 ± 0.018 | 0.546 ± 0.077 | 0.37 ± 0.046 | 0.48 ± 0.018 | 0.324 ± 0.02 | 0.358 ± 0.023 | 0.476 ± 0.033 | 0.4 ± 0.036
17 | YFFFLFFLLPPF | 0.453 ± 0.045 | 0.477 ± 0.025 | 0.408 ± 0.041 | 0.505 ± 0.0069 | 0.416 ± 0.007 | 0.356 ± 0.034 | 0.498 ± 0.0073 | 0.374 ± 0.029
18 | YGHLPLLVLFCV | 0.459 ± 0.013 | 0.509 ± 0.037 | 0.352 ± 0.035 | 0.541 ± 0.013 | 0.211 ± 0.0055 | 0.237 ± 0.023 | 0.399 ± 0.022 | 0.366 ± 0.049
19 | YHRKAILMCTFS | 0.506 ± 0.044 | 0.55 ± 0.011 | 0.443 ± 0.02 | 0.5702 ± 0.0011 | 0.3072 ± 0.00055 | 0.299 ± 0.017 | 0.461 ± 0.021 | 0.443 ± 0.078
20 | YIFLPIALVFFP | 0.435 ± 0.021 | 0.536 ± 0.014 | 0.304 ± 0.037 | 0.543 ± 0.022 | 0.333 ± 0.02 | 0.319 ± 0.014 | 0.488 ± 0.015 | 0.363 ± 0.083
21 | YLFFHMVVLVVV | 0.0358 ± 0.0027 | 0.0745 ± 0.0059 | 0.118 ± 0.043 | 0.182 ± 0.0041 | 0.0943 ± 0.019 | 0.105 ± 0.048 | 0.149 ± 0.019 | 0.157 ± 0.018
22 | YLGSLQVPVHLF | 0.676 ± 0.024 | 0.725 ± 0.062 | 0.639 ± 0.022 | 0.756 ± 0.011 | 0.226 ± 0.013 | 0.255 ± 0.019 | 0.455 ± 0.011 | 0.352 ± 0.011
23 | YMPKHKIQKLMQ | 0.701 ± 0.02 | 0.728 ± 0.032 | 0.639 ± 0.023 | 0.7635 ± 0.0046 | 0.425 ± 0.012 | 0.46 ± 0.023 | 0.607 ± 0.018 | 0.491 ± 0.067
24 | YMVSLSFTLVRS | 0.382 ± 0.038 | 0.454 ± 0.054 | 0.32 ± 0.022 | 0.474 ± 0.033 | 0.297 ± 0.024 | 0.333 ± 0.013 | 0.4552 ± 0.0036 | 0.481 ± 0.041
25 | YSGRYRTLVRCW | 0.291 ± 0.011 | 0.366 ± 0.039 | 0.265 ± 0.037 | 0.4426 ± 0.0032 | 0.199 ± 0.0059 | 0.236 ± 0.033 | 0.384 ± 0.02 | 0.33 ± 0.015
26 | YVCVVSVLLGLL | 0.25 ± 0.017 | 0.319 ± 0.029 | 0.24 ± 0.026 | 0.441 ± 0.0082 | 0.19367 ± 8.4e-05 | 0.226 ± 0.015 | 0.3823 ± 0.0025 | 0.31 ± 0.031

Reference: the supplement of paper PMC10724198
